Results taken from patent US20230088277A1 (SHANGHAI SYNVIDA BIOTECHNOLOGY, published 2023).
Positions count from the first letter of the chain named.

T1: 6×His tag human Pear1 extracellular segment (Leu-21-Ser; 754) (human, UniProt Q5VY43 21-754)
T1 construct: range 21-754; The ELISA and the Biacore test only say 'human Pear1 ECD protein' / 'extracellular segment'; also called human Pear1 ECD protein; human Pear1ECD protein; not shown: 6×His tag
T1 sequence (looked up): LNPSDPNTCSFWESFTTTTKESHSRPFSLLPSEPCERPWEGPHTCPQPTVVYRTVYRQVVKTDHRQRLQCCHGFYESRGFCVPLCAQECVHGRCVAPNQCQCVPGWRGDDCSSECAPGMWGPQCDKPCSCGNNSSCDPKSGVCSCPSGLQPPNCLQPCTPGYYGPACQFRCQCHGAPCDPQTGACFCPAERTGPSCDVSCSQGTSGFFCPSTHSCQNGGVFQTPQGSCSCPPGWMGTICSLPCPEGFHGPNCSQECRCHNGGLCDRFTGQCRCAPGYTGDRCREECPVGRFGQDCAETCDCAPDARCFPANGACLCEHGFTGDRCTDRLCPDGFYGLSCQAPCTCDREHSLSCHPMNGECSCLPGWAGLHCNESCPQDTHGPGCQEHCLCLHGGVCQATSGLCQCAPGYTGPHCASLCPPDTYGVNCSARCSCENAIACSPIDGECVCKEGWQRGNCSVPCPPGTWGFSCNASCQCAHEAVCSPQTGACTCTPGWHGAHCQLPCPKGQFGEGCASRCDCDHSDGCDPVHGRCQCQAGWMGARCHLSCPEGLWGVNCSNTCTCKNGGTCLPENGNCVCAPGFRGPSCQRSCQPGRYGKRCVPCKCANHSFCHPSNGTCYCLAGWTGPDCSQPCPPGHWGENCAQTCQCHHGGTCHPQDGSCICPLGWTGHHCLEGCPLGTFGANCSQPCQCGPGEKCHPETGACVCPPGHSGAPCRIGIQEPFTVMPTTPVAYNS

B1: hLF109 (antibody, V domains shown)
VH: QVQLVQSGAEVKKPGASVKVSCKASGYTFTGYPMNWVRQAPGQNLEWMGVINPYNGGTSYNQKFKGRVTLTVDKSASTAYMELSSLRSEDTAVYYCARGGVRPFAYWGQGTLVTVSS
VL: DIQMTQSPSSLSASVGDRVTITCKASEDIYNRLAWYQQKPGKAPKLLISGATSLETGVPSRFSGSGSGNDFTLTISSLQPEDFATYYCQQYWSTPTFGQGTKLEIK
notes: Humanized antibody
B2: hLF102 (antibody, V domains shown)
VH: B1 VH with V72R
VL: B1 VL with K42N
notes: Humanized antibody
B3: hLF104 (antibody, V domains shown)
VH: B1 VH with V72R
VL: B1 VL with K42N, F71Y
notes: Humanized antibody
B4: hLF108 (antibody, V domains shown)
VH: B1 VH with Q43K, N44R, V68A, K74T
VL: B1 VL with K42N, F71Y
notes: Humanized antibody
B5: hLF115 (antibody, V domains shown)
VH: B1 VH with Q43K, V68A
VL: B1 VL with F71Y
notes: Humanized antibody
B6: hLF111 (antibody, V domains shown)
VH: B1 VH
VL: B1 VL with F71Y
notes: Humanized antibody
B7: hLF116 (antibody, V domains shown)
VH: B1 VH with Q43K, V68A
VL: B1 VL with K42N, F71Y
notes: Humanized antibody
B8: hLF105 (antibody, V domains shown)
VH: B1 VH with Q43K, N44R, V68A, K74T
VL: B1 VL
notes: Humanized antibody
B9: hLF112 (antibody, V domains shown)
VH: B1 VH
VL: B1 VL with K42N, F71Y
notes: Humanized antibody
B10: hLF107 (antibody, V domains shown)
VH: B1 VH with Q43K, N44R, V68A, K74T
VL: B1 VL with F71Y
notes: Humanized antibody
B11: hLF110 (antibody, V domains shown)
VH: B1 VH
VL: B1 VL with K42N
notes: Humanized antibody; also called hLFHO
B12: hLF103 (antibody, V domains shown)
VH: B1 VH with V72R
VL: B1 VL with F71Y
notes: Humanized antibody
B13: hLF114 (antibody, V domains shown)
VH: B1 VH with Q43K, V68A
VL: B1 VL with K42N
notes: Humanized antibody
B14: hLF101 (antibody, V domains shown)
VH: B1 VH with V72R
VL: B1 VL
notes: Humanized antibody (CDR grafting with back mutations)
B15: hLF106 (antibody, V domains shown)
VH: B1 VH with Q43K, N44R, V68A, K74T
VL: B1 VL with K42N
notes: Humanized antibody
B16: hLF113 (antibody, V domains shown)
VH: B1 VH with Q43K, V68A
VL: B1 VL
notes: Humanized antibody
B17: LF2-hIgG4 (antibody, V domains shown)
VH: EVQLQQSGPELVKPGASMKISCKASGYSFTGYPMNWVRQSHVKNLEWIGVINPYNGGTSYNQKFKGKATLTVDKSSSTAYIELLSLTSDDSAVYYCARGGVRPFAYWGQGTLVTVSA
VL: DIQMTQTSSSFSVSLGDRVTITCKASEDIYNRLAWYQQKPGNAPRLLISGATSLETGVPSRFSGSGSGNDYTLSITSLQTEDVATYYCQQYWSTPTFGAGTKLELQ
notes: read from the name as the variable domains of LF2 on human IgG4 constant regions; also called LF2-hlgG 4
B18: LF15 (antibody, V domains shown)
VH: EVQLQQSGPELVKPGASMKISCKASGYSFTGYTMNWVKQSHGENLEWIGVINPYNGGTSYNQKFKGKATLTVDKSFSTAYMEILSLTSEDSAVYYCSRGGGNSWFAYWGQGTLVTVSA
VL: DIQMTQTSSYLSVSLGGRVTITCKASDHINNWLAWYQQKPGNAPRLLISGATSLETGVPSRFSGSGSGTDYSLTITSLQTEDVATYYCQQYWSIPTFGGGTRLEIK
notes: Mouse monoclonal antibody from hybridoma
B19: LF2 (antibody, V domains shown)
VH: B17 VH
VL: B17 VL
notes: as for B18
B20: LF7 (antibody, V domains shown)
VH: B17 VH with V42G, P53S, T58A, S77N, T78I, A79V, Y80H, I81M, D89E
VL: DIVMTQSQKFMSTSVGDRVSVTCKASQNVDTNVAWYQQKPGQSPKALIYSASYRYSGVPDRFTGSGSGTDFTLTISNVQSEDLAEYFCQQYDSYPYTFGGGTKLEIR
notes: as for B18
B21: LF11 (antibody, V domains shown)
VH: B17 VH with R38K, S40T, V42G, V50L, I81M, D90E, A105D, Y106F
VL: DIVITQSPAIMSASPGEKVTMTCSARSSVSYMYWYQQKPGSSPRLLIYDTSKLASGVPVRFSGSGSGTSYSLTISRMEAEDAATYFCQQWSSYPPTFGGGTKLEIK
notes: as for B18
B22: LF16 (antibody, V domains shown)
VH: EVQLQQSGPELVKPGASMKISCKASGYAFTGYTMNWVKQSHGKNLDWIGVINGYNGGTSYNQKFKGKATLTVDKSSSTAYMELLSLTSEDSAIYYCARGGPTTGFVYWGQGTLVTVSA
VL: B17 VL with N69K, Q106K
notes: as for B18
B23: LF3 (antibody, V domains shown)
VH: B17 VH with R38K, S40T, V42G, V50L, I81M, D90E, A105D, Y106F
VL: B17 VL
notes: as for B18

Target: T1, 6×His tag human Pear1 extracellular …
Test: SPR (Biacore); antibody as ligand, Pear1 extracellular segment

Binder	Kd [nM]	koff [s⁻¹]	kon [M⁻¹ s⁻¹]	t1/2 [min]
B1	6.14	0.000249	40500	46.4
B2	7.87	0.000395	50200	29.2
B3	13.3	0.000506	38000	22.8
B4	5.98	0.000307	51300	37.7
B5	5.31	0.000235	44200	49.2
B6	6.87	0.000271	39500	42.6
B7	5.09	0.000221	43400	52.3
B8	3.82	0.000176	46200	65.6
B9	4.99	0.000237	47500	48.7
B10	6.74	0.000345	51200	33.5
B11	5.42	0.000236	43500	49
B12	19	0.000532	28000	21.7
B13	5.09	0.000232	45600	49.8
B14	7.67	0.000393	51200	29.4
B15	5.8	0.000233	40100	49.7
B16	4.28	0.000201	47000	57.4
B17	3.52	0.000187	53100	61.8

Target: T1, 6×His tag human Pear1 extracellular …
Test: ELISA, plate coated with human Pear1 ECD
Description: FIG. 6 The comparison of the affinities of the anti-human Pear1 antibodies to human Pear1. The ELISA plate was coated with human Pear1 ECD proteins and the reactions were conducted between antibodies at different concentrations (2000 ng/mL, 1000 ng/mL, 500 ng/mL, 250 ng/mL, 125 ng/mL, 62.5 ng/mL, 31.25 ng/mL, 15.625 ng/mL, 7.8125 ng/mL, 3.90625 ng/mL, 1.953125 ng/mL, 0.9765625 ng/mL) and the human Pear1 ECD proteins. OD value was measured to obtain the EC 50 value of the antigen-antibody combination
8.2.1 Comparison of antigen binding ability of these antibodies.

Binder	EC50 [µg/mL]
B18	0.0807
B19	0.0111
B20	0.0336
B21	0.00891
B22	0.0547
B23	0.00927
